Assay results from publication PMC6224480, “Insights into Kinesin-1 Activation from the Crystal Structure of KLC2 Bound to JIP3” (Structure(London, England:1993), 2018).

What was measured:
[1] = SEC-MALLS; type: physicochemical; settings: 25 mM HEPES pH 7.5, 0.1 M NaCl, 1 mM TCEP
Method: Fifty microliters of JIP3^LZ was injected onto a WTC-030S5 column, pre-equilibrated with buffer containing 25 mM HEPES pH 7.5, 0.1 M NaCl and 1 mM TCEP at a flow rate of 1 ml/min. Data were recorded using a DAWN 8+ multi-angle light scattering (LS) detector, an Optilab T-rEX differential refractive index (dRI) detector and UV absorbance (UV) detector (Wyatt Technology) and analyzed with the Astra 6.2 software package provided by the manufacturer (Wyatt Technology).

[2] = Secondary structure content calculated from the KLC2^TPR:JIP3^LZ crystal structure (STRIDE)
Method: All CD spectra were recorded on a Chirascan CD spectrometer (Applied Photophysics) in quartz cuvettes with a 0.1 cm path length. Data were recorded at 20°C between 260 - 180 nm in 1 nm increments and a 2 nm bandwidth over an average of two scans. The KLC2^TPR-myc and Trp-JIP3^LZ proteins were dialysed extensively into 20 mM potassium phosphate pH 7.5, 0.5 mM DTT. Spectra were collected from KLC2^TPR-myc samples at concentrations of 0.29, 0.14 and 0.086 mg/ml. Trp-JIP3^LZ spectra were collected at 0.15, 0.074 and 0.044 mg/ml. One spectrum was recorded for each sample at each concentration and background-corrected by subtraction of a buffer-only spectrum. […] KLC2^TPR-myc and Trp-JIP3^LZ spectra were analysed using the SELCON3 and CONTIN algorithms, respectively, using reference dataset set 4 ([Sreerama et al., 1999], [van Stokkum et al., 1990]). For each protein, the mean percentage of each secondary structure type, and the corresponding standard deviation, was calculated from the values obtained from the three concentrations. The secondary structure content for KLC2^TPR-myc and Trp-JIP3^LZ were calculated using the KLC2^TPR:JIP3^LZ crystal structure using the STRIDE server (http://webclu.bio.wzw.tum.de/cgi-bin/stride/stridecgi.py) ([Frishman and Argos, 1995]).

[3] = CD spectroscopy; type: physicochemical; settings: 20°C, 20 mM potassium phosphate pH 7.5, 0.5 mM DTT, SELCON3, 0.29, 0.14 and 0.086 mg/ml
Method: All CD spectra were recorded on a Chirascan CD spectrometer (Applied Photophysics) in quartz cuvettes with a 0.1 cm path length. Data were recorded at 20°C between 260 - 180 nm in 1 nm increments and a 2 nm bandwidth over an average of two scans. The KLC2^TPR-myc and Trp-JIP3^LZ proteins were dialysed extensively into 20 mM potassium phosphate pH 7.5, 0.5 mM DTT. Spectra were collected from KLC2^TPR-myc samples at concentrations of 0.29, 0.14 and 0.086 mg/ml. Trp-JIP3^LZ spectra were collected at 0.15, 0.074 and 0.044 mg/ml. One spectrum was recorded for each sample at each concentration and background-corrected by subtraction of a buffer-only spectrum. Corrected spectra were converted to units of mean residue ellipticity and deconvolved using the Dichroweb server ([Whitmore and Wallace, 2008]). KLC2^TPR-myc and Trp-JIP3^LZ spectra were analysed using the SELCON3 and CONTIN algorithms, respectively, using reference dataset set 4 ([Sreerama et al., 1999], [van Stokkum et al., 1990]). For each protein, the mean percentage of each secondary structure type, and the corresponding standard deviation, was calculated from the values obtained from the three concentrations. The secondary structure content for KLC2^TPR-myc and Trp-JIP3^LZ were calculated using the KLC2^TPR:JIP3^LZ crystal structure using the STRIDE server (http://webclu.bio.wzw.tum.de/cgi-bin/stride/stridecgi.py) ([Frishman and Argos, 1995]).

[4] = system: KLC2^TPR; assay: ITC of KLC2^TPR binding to GST3C-JIP3^LZ, two-stage sequential model; parameters: species or system murine; settings: for K, macroscopic association constant / ΔH / –TΔS: ITC, 25°C, 0.5 M NaCl, pH 7.5, globally fitted over four experiments; for K, macroscopic association constant: 25 mM HEPES, 5 mM MgCl2, 1 mM TCEP
Method: For ITC studies with the KLC2^TPR and GST-JIP3^LZ, the high KLC2^TPR concentrations required to use this protein as titrant necessitated a higher salt concentration than that used for crystallographic studies. The KLC2^TPR was prepared as above for crystallographic studies but the final size exclusion chromatography step was performed in 500 mM NaCl, 25 mM HEPES, 5mM MgCl2, 1 mM TCEP (final pH 7.5). The GST-JIP3^LZ protein was bound to glutathione sepharose resin in batch as described above for the JIP3^LZ. The GST-JIP3^LZ protein was eluted in 0.25 M NaCl, 50 mM TRIS.HCl, 1 mM TCEP, 25 mM glutathione; final pH 7.5, and purified by size exclusion chromatography on a Superdex 200 16/600 column (GE Healthcare) equilibrated in 500 mM NaCl, 25 mM HEPES, 5mM MgCl2 and 1 mM TCEP (final pH 7.5).
To study the binding of the KLC2^TPR to GST3C-JIP3^LZ, the proteins were prepared by size exclusion chromatography in 0.5 M NaCl, 25 mM HEPES, 5 mM MgCl2, 1 mM TCEP, final pH 7.5. ITC measurements were performed on a MicroCal iTC200 calorimeter (Malvern) at 25°C, with a differential power of 5.0 μcal/s and stirring at 750 rpm. Experiments consisted of an initial sacrificial 0.5 μl injection, followed 120 s later by 19 injections of 2 μl spread over 4 s, spaced 120 s apart. Thermograms were integrated and corrected for heats of dilution using NITPIC (http://biophysics.swmed.edu/MBR/software.html). The resulting isotherms were analysed in SEDPHAT (http://www.analyticalultracentrifugation.com/sedphat/) ([Keller et al., 2012], [Zhao et al., 2015]). The isotherms from these experiments were globally fitted with the A + B + B → AB + B → ABB model. […] Figures were prepared using GUSSI (http://biophysics.swmed.edu/MBR/software.html).

[5] = stage A + B + B → BA + B (first KLC2^TPR)
[6] = stage BA + B → BAB (second KLC2^TPR)

B1: JIP3^LZ: JIP3 leucine zipper domain, residues 417-487 of murine JIP3 isoform A (protein)
chain: WMGKEVGNLLLENSQLLETKNALNVVKNDLIAKVDQLSGEQEVLKGELEAAKQAKVKLENRIKELEEELKRV
modifications: left off: GST, N-terminal, cleaved
notes: JIP3 leucine zipper domain, residues 417-487 of murine JIP3 isoform A
oligomeric state in solution [1]: stable dimer | α-helical content calculated from crystal structure [2]: 77%

B2: KLC2^TPR-myc: murine KLC2 residues 191-480 with … fused to the C-terminus (protein)
chain: GYEIPARLRTLHNLVIQYASQGRYEVAVPLCKQALEDLEKTSGHDHPDVATMLNILALVYRDQNKYKDAAHLLNDALAIREKTLGKDHPAVAATLNNLAVLYGKRGKYKEAEPLCKRALEIREKVLGKFHPDVAKQLSNLALLCQNQGKAEEVEYYYRRALEIYATRLGPDDPNVAKTKNNLASCYLKQGKYQDAETLYKEILTRAHEKEFGSVNGENKPIWMHAEEREESKDKRRDRRPMEYGSWYKACKVDSPTVNTTLRTLGALYRPEGKLEAAHTLEDCASRSRKQ
modifications: left off: His6-SUMO, N-terminal, cleaved | myc (…), C-terminal, kept
secondary structure content by CD versus crystal structure [3]: very similar to that calculated from the KLC2^TPR:JIP3^LZ crystal structure

B3: GST-JIP3^LZ: GST and 3C site fused to murine JIP3 isoform A leucine zipper, residues 417-487 (protein, UniProt Q9ESN9 417-487, looked up, fragment)
chain: MGKEVGNLLLENSQLLETKNALNVVKNDLIAKVDQLSGEQEVLKGELEAAKQAKVKLENRIKELEEELKRV
modifications: isoform A N-terminal GST tag, 3C site
thermodynamic driving force ([4]; binding of the first KLC2^TPR): enthalpically driven | thermodynamic driving force ([4]; binding of the second KLC2^TPR): entropically driven | K, macroscopic association constant [4, 5]: 0.1317 µM⁻¹ | ΔH [4, 5]: -18.756 kcal/mol | –TΔS [4, 5]: 11.772 kcal/mol | K, macroscopic association constant [4, 6]: 0.1315 µM⁻¹ | ΔH [4, 6]: 0.952 kcal/mol | –TΔS [4, 6]: -7.935 kcal/mol | cooperativity of binding of two KLC2^TPR subunits ([4]; suggested by very similar macroscopic association constants): positive cooperativity
